Laboratory results published in publication PMC9834252 (2023).

Molecular target: UbcH7-Ub (Homo sapiens, UniProt P68036)
Test: ITC

UbcH7-Ub, sequence (P68036 whole entry): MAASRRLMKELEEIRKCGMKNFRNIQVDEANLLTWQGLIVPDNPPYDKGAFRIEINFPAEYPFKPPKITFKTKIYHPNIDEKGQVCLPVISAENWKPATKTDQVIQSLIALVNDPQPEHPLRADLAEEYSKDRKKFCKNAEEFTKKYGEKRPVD

Kd: 5.3 µM
B1: HOIL-1 (protein)
chain: MDEKTKKAEEMALSLTRAVAGGDEQVAMKCAIWLAEQRVPLSVQLKPEVSPTQDIRLWVSVEDAQMHTVTIWLTVRPDMTVASLKDMVFLDYGFPPVLQQWVIGQRLARDQETLHSHGVRQNGDSAYLYLLSARNTSLNPQELQRERQLRMLEDLGFKDLTLQPRGPLEPGPPKPGVPQEPGRGQPDAVPEPPPVGWQCPGCTFINKPTRPGCEMCCRARPEAYQVPASYQPDEEERARLAGEEEALRQYQQRKQQQQEGNYLQHVQLDQRSLVLNTEPAECPVCYSVLAPGEAVVLRECLHTFCRECLQGTIRNSQEAEVSCPFIDNTYSCSGKLLEREIKALLTPEDYQRFLDLGISIAENRSAFSYHCKTPDCKGWCFFEDDVNEFTCPVCFHVNCLLCKAIHEQMNCKEYQEDLALRAQNDVAARQTTEMLKVMLQQGEAMRCPQCQIVVQKKDGCDWIRCTVCHTEICWVTKGPRWGPGGPGDTSGGCRCRVNGIPCHPSCQNCH
